# B1: GFP-Mec17p: crude GFP-Mec17p-enriched fraction obtained from transgenic Tetrahymena (protein)
# chain: MFKNQLLSLSLRIQKLRLCRQGNQLKVLQKSINQLLFKTQSIDQILQYLQQKKKTHQSILENQNQHIHSIGLVSQLTNQKINKQKNQKAMEFNFIINKLVQLDQQGLGVYIPRASRSKVSSQQEQQLGQVLNTMGERSAIAQGLKQVITNYDKVQGTDQRVYIVAEGRTCQGFLKVGQKNLFYRDMMGNIKEIKPLCVLDFYVHESCQRQGYGKLLFEYMIQCEQTSPEKLAYDRPSPKLIAFLKKHYNLVKYIAQNNNFVVFDQYFRSDASSQNKQNQNTRSYSQPYSDYSSQIPTNYPQQQQQQSNSKSYPYKQENNIDLMQHSSSRNNKEFLNAGRAILSKEEIYKKDNLSQQNIENTLNNINNSQYSTKSQQQQQYQKDYQLDKYENNWGADKNIKKPPFPGQDRQLDKIQQKIQQTERELDVVNQQIIKQRQNLSQDPLTQNHRAQNVYNTNQFGTSPWAQTGFNYYSTSSSNYGNHYTYYKK
# modifications: left off: large carriers
# notes: crude GFP-Mec17p-enriched fraction obtained from transgenic Tetrahymena
# B2: GST-MmMEC-17: recombinant murine MEC-17 expressed in E. coli as a GST fusion (protein)
# chain: MEFPFDVDALFPERITVLDQHLRPPARRPGTTTPARVDLQQQIMTIVDELGKASAKAQHLPAPITSALRMQSNRHVIYILKDTSARPAGKGAIIGFLKVGYKKLFVLDDREAHNEVEPLCILDFYIHESVQRHGHGRELFQHMLQKERVEPHQLAIDRPSPKLLKFLNKHYNLETTVPQVNNFVIFEGFFAHQHRPPTSSLRATRHSRAAVADPIPAAPARKLPPKRAEGDIKPYSSSDREFLKVAVEPPWPLNRAPRRATPPAHPPPRSSSLGNSPDRGPLRPFVPEQELLRSLRLCPPHPTARLLLATDPGGSPAQRRRTRGTPWGLVAQSCHYSRHGGFNTSFLGTGNQERKQGEQEAEDRSASEDRVLLLDGSGEEPTQTGAPRAQAPPPQSWTVGGDIMNARVIRNLQERRSTRPW
# modifications: left off: a dimerising Fc or GST
# notes: recombinant murine MEC-17 expressed in E. coli as a GST fusion
# Key:
# [1] = biological target: T1, K40 of α-tubulin (Tetrahymena MEC17-KO axonemes or tubulin) (Tetrahymena thermophila, UniProt P41351); assay: In vitro tubulin acetyltransferase assay: activity of MEC-17 enzyme preparations; format: biochemical; conditions: for αTAT activity on MEC17-KO axonemes: with acetyl-CoA, western 6-11 B-1
# T1 construct: Total tubulin was purified from the MEC17-KO strain of Tetrahymena; endogenous in cells; host or cells: Tetrahymena MEC17-KO strain (axonemes from cilia, or DEAE-purified tubulin)
# T1 sequence (P41351 whole entry): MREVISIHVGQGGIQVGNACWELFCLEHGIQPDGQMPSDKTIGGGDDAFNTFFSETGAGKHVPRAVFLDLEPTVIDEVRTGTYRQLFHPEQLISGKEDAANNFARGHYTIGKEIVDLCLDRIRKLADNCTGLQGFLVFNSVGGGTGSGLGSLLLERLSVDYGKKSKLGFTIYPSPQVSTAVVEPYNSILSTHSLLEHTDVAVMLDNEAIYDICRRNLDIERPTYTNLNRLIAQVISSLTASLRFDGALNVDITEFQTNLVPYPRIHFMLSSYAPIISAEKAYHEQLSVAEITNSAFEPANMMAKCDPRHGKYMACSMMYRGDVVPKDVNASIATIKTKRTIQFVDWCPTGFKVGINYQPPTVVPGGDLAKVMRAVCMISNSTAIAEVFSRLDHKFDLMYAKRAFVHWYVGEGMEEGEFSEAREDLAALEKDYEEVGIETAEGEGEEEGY
# T1 sequence (P41352 whole entry partner): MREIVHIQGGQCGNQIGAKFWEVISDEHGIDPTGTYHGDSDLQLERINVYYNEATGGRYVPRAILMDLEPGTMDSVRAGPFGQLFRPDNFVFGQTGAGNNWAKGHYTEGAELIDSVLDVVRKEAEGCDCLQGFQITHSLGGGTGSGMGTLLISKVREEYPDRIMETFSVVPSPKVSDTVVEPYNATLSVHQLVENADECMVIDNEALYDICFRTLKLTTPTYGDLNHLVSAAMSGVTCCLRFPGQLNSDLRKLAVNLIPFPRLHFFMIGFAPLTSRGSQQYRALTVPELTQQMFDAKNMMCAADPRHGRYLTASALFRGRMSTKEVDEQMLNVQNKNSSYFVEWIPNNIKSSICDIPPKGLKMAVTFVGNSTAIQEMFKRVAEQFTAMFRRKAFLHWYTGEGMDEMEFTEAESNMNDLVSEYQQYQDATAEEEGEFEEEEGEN
# Description: (§1) To disrupt the MEC-17 gene in Tetrahymena, we used homologous DNA recombination with a fragment carrying the neo4 marker that replaced the coding region. MEC-17 was overexpressed in Tetrahymena using the MTT1 cadmium-dependent promoter. In C. elegans, MEC-12-K40, MEC-12-Q40, and MEC-12-R40 transgenes were introduced into a single site on chromosome II in the EG4322 strain. Animals homozygous for a MEC-12 transgene and homozygous for the mec-12(e1607) allele were obtained by standard crosses. All touch sensation assays in C. elegans were done using blind scoring. To deplete human MEC-17 (C6Orf134) mRNA in Hela cells, we introduced MEC-17-specific siRNAs (ON-TARGETplus pool, Dharmacon) using Oligofectamine (Invitrogen). To knockdown mec17 expression in zebrafish, MOs designed to target the MEC-17 mRNA (Open Biosystems) were injected into early embryos. ATG-MEC17 MO targets the translation initiation site of mec17 mRNA. SP-MEC17 MO targets the exon3/intron3-4 splice junction, and is expected to result in an aberrant splicing isoform of exon2 to exon 4, producing a frameshift mutation and associated protein truncation. As a negative control, we injected MO with a random sequence (oligo-25N, Gene Tools) or a 5 bp mismatch to the ATG-MEC17 MO. Live embryos were scored for phenotypes at 48 hpf. To produce a recombinant MEC-17 protein, the cDNA sequence of the murine MEC-17 (BF135007, Open Biosystems) was subcloned into pGEX-3× plasmid (GE Healthcare), expressed in BL21 E. coli cells as a GST fusion and purified using GST-Bind kit (Novagen). The in vitro acetylation assays were performed in 50 mM Tris-HCl pH 8.0, […], 0.1 mM EDTA, with purified Tetrahymena MEC-17-KO axonemes or tubulin (purified using DEAE chromatography), recombinant GST-MmMEC-17 enzyme and 10 μM acetyl-CoA. The reaction was detected by western blotting using anti-acetyl-K antibodies.
# (§2) To prepare MEC 17-KO axonemes, Tetrahymena cells were grown to the mid-log phase and deciliated by pH shock (Wloga et al., 2008 Eukaryot Cell 7:1362-1372). Cilia were suspended in 1 ml of 1% NP-40 in the axoneme buffer (30 mM HEPES, 20 mM potassium acetate, 5 mM MgSO4, 0.5 mM EDTA, pH 7.6) with Complete protease inhibitors (Roche). After 1-2 min on ice, axonemes were collected by centrifugation (20,000×g, 15 min, 4° C.), suspended in the in vitro acetylation reaction buffer (50 mM Tris HCl, pH 8.0, 10% glycerol, 0.1 mM EDTA, 1 mM DTT) with protease inhibitors and stored at −80° C.
# (§3) Total tubulin was purified from the MEC17-KO strain of Tetrahymena using a protocol modified after Yakovich and colleagues (Yakovich et al., 2006 Exp Parasitol 114:289-296). […]
# [2] = biological target: T2, K40 of α-tubulin (Tetrahymena MEC17-KO axonemes or tubulin) (Tetrahymena thermophila, UniProt P41351, K40R); assay: as above; format: biochemical; conditions: pan acetyl-K antibodies
# T2 construct: Total tubulin was purified from the MEC17-KO strain of Tetrahymena; endogenous in cells; host or cells: Tetrahymena MEC17-KO strain (axonemes from cilia, or DEAE-purified tubulin)
# T2 sequence (P41351 whole entry K40R): as the sequence (P41351 whole entry) above, with K40R counted along it
# T2 sequence (P41352 whole entry, further chain): as the sequence (P41352 whole entry partner) above
# Description: as §1, §2, §3
Molecule,αTAT activity on MEC17-KO axonemes [1],K40 acetylation activity on purified tubulin ([1]; highly purified tubulin from MEC17-KO cells),acetylation of R40 axonemes (K40R mutant) [2]
B1,had K40 αTAT activity,–,–
B2,robust αTAT activity,robust K40 acetylation activity,failed to acetylate

# From patent US20140248635A1, “ALPHA-TUBULIN […]” (University of Georgia Research Foundation, Inc., priority 2010, published 2014)
